# Data published in patent US9176064B2, “Bisubstrate fluorescent probes for protein kinase CK2” (University of Tartu, priority 2012, dated 2015).
# Where a SMILES comes first, the peptide text is derived from it. [ ]: non-standard residue; d: D form. The star is where a group is joined. X1 = O=C(CCCCCCCn1cnc2c(Br)c(Br)c(Br)c(Br)c21)*
# Experiments:
# Test in all cases: Kinase panel residual activity
# Type in all cases: biochemical
# Settings in all cases: compound at 1 micromolar
# [1] = target: T1, DYRK2 (Homo sapiens, UniProt Q92630)
# T1 sequence (Q92630 1-601): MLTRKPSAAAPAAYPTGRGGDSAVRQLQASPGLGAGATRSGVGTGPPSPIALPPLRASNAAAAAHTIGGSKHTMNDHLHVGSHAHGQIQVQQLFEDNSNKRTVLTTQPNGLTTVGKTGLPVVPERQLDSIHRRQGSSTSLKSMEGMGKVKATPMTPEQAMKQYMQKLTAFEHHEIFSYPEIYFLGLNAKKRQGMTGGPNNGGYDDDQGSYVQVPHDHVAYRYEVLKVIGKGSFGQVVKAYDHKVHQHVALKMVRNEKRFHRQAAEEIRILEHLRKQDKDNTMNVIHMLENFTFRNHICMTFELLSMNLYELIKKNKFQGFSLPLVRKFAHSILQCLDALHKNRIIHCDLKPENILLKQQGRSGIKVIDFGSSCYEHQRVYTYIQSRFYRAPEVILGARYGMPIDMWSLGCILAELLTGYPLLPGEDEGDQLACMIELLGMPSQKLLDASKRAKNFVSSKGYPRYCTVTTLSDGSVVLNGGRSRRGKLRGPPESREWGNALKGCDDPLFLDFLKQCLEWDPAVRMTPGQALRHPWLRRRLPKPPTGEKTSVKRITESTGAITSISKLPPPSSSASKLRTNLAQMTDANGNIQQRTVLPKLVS
# [2] = target: JNK3 (Homo sapiens, UniProt P53779)
# [3] = target: NEK6 (Homo sapiens, UniProt Q9HC98)
# [4] = target: PDGFRA (Homo sapiens, UniProt P16234)
# Chain of PDGFRA (P16234 24-1089, species assumed): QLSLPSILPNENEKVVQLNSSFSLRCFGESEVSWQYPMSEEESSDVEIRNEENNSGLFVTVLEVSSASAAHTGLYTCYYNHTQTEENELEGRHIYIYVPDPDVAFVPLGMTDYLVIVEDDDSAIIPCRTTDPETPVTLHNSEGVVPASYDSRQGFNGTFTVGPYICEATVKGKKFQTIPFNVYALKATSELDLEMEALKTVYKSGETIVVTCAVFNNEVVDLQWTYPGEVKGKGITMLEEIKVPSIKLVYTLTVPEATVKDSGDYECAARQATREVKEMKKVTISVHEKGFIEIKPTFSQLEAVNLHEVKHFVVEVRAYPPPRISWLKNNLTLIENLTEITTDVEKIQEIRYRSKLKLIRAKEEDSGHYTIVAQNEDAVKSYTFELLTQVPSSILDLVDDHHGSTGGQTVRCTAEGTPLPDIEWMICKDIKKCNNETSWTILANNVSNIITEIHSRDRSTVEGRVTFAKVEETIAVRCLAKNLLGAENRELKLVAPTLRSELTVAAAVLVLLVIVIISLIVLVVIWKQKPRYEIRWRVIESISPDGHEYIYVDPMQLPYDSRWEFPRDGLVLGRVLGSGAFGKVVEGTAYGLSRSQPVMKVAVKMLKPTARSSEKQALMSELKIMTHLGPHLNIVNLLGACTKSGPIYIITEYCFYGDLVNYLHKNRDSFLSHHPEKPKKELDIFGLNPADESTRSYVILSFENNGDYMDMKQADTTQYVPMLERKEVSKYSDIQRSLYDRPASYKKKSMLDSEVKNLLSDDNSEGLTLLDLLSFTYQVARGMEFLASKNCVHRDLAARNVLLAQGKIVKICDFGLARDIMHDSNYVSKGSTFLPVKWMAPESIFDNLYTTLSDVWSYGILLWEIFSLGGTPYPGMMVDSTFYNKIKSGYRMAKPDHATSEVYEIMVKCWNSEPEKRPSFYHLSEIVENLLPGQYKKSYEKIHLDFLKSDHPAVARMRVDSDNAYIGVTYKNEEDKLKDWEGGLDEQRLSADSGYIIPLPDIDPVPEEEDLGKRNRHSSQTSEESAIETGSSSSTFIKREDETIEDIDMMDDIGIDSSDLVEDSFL
# [5] = target: Aurora B (Homo sapiens, UniProt Q96GD4)
# Chain of Aurora B (Q96GD4 whole entry): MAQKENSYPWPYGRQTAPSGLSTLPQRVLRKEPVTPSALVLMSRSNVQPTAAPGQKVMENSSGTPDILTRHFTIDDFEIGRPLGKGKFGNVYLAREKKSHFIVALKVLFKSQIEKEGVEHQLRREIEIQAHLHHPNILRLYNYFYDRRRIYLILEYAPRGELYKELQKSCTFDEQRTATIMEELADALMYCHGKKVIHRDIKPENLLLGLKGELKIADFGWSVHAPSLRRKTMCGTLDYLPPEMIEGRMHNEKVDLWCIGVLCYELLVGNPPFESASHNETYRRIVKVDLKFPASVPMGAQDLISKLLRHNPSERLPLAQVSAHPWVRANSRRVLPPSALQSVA
# [6] = target: T2, MKK6 (Homo sapiens, UniProt P52564)
# T2 sequence (P52564 1-334): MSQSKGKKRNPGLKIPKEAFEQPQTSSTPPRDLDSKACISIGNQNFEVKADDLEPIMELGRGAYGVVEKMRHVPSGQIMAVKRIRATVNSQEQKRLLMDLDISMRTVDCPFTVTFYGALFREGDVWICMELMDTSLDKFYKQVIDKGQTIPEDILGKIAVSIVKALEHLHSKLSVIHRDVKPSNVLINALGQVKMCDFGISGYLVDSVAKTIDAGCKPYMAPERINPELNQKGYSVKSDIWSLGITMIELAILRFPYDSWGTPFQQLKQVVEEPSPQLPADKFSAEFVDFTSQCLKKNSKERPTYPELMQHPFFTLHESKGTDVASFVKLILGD
# [7] = target: SIK2 (Homo sapiens, UniProt Q9H0K1)
# Chain of SIK2 (Q9H0K1 whole entry, species assumed): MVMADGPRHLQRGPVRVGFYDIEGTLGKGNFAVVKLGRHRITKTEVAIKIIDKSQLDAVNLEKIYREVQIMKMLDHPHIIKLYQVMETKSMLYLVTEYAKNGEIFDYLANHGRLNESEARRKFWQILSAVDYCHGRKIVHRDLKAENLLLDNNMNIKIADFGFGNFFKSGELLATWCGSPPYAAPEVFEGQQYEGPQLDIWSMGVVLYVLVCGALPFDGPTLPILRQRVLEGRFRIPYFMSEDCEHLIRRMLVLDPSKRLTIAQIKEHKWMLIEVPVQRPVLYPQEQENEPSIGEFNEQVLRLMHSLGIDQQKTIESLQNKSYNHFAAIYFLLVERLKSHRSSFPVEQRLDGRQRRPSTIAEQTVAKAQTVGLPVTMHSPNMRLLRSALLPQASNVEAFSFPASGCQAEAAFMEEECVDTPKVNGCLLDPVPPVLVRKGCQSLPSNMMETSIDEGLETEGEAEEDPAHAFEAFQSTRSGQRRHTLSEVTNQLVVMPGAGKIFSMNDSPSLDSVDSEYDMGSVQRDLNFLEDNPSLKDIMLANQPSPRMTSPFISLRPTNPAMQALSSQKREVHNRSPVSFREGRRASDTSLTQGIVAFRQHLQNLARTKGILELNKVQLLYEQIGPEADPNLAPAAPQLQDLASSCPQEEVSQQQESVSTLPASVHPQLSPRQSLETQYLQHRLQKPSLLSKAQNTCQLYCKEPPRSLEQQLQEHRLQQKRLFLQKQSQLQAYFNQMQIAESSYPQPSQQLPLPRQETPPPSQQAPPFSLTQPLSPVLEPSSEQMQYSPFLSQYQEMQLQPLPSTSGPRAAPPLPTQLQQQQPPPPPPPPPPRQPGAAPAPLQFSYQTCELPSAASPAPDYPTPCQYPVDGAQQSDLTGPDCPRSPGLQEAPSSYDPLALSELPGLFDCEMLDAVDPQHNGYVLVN
# [8] = target: DAPK1 (Homo sapiens, UniProt P53355)
# [9] = target: FGF-R1 (Homo sapiens, UniProt P11362)
# [10] = target: PAK2 (Homo sapiens, UniProt Q13177)
# Chain of PAK2 (Q13177 whole entry, species assumed): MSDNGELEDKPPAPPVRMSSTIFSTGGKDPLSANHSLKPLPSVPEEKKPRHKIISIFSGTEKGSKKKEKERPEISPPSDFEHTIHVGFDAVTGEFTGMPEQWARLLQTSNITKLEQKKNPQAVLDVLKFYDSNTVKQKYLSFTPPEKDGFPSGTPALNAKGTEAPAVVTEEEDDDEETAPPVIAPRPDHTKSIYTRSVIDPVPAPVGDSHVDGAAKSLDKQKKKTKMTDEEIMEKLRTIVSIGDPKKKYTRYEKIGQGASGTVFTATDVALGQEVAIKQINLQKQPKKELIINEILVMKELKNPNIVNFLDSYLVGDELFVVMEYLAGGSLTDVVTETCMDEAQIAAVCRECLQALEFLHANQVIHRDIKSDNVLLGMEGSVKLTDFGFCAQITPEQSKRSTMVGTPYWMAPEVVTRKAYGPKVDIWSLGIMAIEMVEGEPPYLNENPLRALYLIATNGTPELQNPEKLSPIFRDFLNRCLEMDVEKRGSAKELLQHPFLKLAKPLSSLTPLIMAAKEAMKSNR
# [11] = target: T3, LKB1 (Homo sapiens, UniProt Q15831)
# T3 sequence (Q15831 1-433): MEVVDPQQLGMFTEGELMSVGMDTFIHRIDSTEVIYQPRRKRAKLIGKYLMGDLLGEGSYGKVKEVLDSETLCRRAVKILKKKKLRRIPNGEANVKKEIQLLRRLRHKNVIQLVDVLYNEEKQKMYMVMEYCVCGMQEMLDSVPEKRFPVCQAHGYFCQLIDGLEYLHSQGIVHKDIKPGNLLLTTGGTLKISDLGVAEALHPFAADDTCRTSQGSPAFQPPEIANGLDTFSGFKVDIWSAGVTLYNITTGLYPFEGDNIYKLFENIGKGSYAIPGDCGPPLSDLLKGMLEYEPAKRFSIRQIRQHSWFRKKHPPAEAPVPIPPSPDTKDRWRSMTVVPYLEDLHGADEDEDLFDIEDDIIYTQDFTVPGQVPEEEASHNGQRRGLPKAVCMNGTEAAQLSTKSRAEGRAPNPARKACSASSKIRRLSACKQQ
# T3 sequence (Q7RTN6 1-431 partner): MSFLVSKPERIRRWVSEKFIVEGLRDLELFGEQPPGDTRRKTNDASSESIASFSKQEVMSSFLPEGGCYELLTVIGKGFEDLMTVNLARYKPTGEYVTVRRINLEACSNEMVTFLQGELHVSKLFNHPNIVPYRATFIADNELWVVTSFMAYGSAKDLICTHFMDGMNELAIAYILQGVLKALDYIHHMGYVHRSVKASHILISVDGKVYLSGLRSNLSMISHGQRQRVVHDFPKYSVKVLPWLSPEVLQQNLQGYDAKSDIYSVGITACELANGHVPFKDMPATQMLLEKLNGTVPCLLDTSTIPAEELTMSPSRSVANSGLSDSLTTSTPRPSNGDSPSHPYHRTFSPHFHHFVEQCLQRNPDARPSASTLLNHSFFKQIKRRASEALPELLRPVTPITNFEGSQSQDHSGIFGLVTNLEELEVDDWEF
# T3 sequence (Q9Y376 1-341 partner): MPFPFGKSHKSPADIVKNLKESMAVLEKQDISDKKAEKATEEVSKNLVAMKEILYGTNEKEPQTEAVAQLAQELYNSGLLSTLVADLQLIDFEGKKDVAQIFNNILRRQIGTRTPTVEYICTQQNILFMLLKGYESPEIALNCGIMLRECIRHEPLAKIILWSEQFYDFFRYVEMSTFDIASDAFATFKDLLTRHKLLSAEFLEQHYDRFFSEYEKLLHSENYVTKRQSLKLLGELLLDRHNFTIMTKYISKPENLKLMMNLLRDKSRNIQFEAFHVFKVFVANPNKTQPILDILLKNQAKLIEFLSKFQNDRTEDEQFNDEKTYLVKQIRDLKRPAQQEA
# [12] = target: ERK2 (Homo sapiens, UniProt P28482)
# Chain of ERK2 (P28482 whole entry, species assumed): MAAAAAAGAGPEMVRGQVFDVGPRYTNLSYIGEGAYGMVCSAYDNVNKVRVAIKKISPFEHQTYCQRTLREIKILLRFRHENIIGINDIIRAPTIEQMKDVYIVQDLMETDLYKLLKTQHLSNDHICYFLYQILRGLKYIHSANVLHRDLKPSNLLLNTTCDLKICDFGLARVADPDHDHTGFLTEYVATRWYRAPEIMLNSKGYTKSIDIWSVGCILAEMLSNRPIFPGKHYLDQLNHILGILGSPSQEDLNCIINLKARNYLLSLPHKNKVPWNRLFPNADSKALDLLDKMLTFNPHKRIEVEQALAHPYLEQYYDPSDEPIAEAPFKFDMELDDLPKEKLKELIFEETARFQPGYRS
# [13] = target: OSR1 (Homo sapiens, UniProt O95747)
# [14] = target: PLK1 (Homo sapiens, UniProt P53350)
# [15] = target: MKK2 (Homo sapiens, UniProt P36507)
# Chain of MKK2 (P36507 whole entry, species assumed): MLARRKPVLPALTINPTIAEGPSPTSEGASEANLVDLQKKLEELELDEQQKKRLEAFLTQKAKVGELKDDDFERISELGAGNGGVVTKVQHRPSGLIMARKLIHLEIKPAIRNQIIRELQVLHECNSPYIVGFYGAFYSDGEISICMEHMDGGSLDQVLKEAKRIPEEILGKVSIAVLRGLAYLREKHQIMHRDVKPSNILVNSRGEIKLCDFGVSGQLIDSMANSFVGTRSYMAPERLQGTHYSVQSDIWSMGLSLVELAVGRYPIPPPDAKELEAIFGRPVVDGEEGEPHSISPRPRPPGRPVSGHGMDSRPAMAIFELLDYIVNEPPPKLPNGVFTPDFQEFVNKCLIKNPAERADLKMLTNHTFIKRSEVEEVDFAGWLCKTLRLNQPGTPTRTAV
# [16] = target: IR (Homo sapiens, UniProt P06213)
# Chain of IR (P06213 28-1382): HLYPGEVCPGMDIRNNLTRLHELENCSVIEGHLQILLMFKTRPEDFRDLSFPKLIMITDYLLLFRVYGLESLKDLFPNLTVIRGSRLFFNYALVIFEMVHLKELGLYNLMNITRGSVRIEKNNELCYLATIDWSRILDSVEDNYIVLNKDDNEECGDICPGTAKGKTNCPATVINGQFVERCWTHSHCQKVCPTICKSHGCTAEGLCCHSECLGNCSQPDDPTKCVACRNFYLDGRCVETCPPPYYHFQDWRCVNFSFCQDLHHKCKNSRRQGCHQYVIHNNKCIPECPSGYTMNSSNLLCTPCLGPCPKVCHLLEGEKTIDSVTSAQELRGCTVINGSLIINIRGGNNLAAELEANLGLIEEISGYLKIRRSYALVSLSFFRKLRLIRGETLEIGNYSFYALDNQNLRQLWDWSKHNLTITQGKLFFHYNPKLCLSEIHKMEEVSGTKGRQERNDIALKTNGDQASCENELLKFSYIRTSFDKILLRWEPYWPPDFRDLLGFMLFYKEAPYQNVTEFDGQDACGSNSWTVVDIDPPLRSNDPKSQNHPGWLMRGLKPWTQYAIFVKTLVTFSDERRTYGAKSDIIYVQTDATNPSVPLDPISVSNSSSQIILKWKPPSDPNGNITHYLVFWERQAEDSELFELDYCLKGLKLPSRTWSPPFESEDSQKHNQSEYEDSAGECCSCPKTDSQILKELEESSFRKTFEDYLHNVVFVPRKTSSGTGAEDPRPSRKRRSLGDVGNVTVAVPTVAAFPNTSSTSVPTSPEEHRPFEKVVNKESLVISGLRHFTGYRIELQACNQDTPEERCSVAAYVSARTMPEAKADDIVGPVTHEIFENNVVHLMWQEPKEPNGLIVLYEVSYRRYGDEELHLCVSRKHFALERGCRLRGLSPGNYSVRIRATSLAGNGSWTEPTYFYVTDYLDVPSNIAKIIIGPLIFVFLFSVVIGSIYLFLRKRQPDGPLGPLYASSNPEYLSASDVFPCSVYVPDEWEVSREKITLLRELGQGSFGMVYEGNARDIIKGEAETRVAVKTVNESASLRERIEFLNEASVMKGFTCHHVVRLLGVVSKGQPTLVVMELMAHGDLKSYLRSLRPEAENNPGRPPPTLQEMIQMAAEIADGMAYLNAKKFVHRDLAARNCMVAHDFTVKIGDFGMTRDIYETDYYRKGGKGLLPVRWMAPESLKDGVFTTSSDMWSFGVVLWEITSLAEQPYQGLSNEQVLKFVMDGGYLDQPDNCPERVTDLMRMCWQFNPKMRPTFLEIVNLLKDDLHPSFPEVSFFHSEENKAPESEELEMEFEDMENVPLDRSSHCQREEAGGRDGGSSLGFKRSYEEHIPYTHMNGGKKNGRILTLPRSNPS
structure (smiles),measurement,setting,value
NCCCC[C@H](NC(=O)[C@H](CC(=O)O)NC(=O)[C@H](CC(=O)O)NC(=O)[C@H](CC(=O)O)NC(=O)[C@H](CC(=O)O)NC(=O)[C@H](CC(=O)O)NC(=O)[C@@H](CC(=O)O)NC(=O)CCCCCCCn1cnc2c(Br)c(Br)c(Br)c(Br)c21)C(=O)O [TBBI-OcA-(D-Asp)-(L-Asp)5-(L-Lys)-OH] (X1-[dD]DDDDDK-OH),remaining activity at 1 µM,[1],17%
same,remaining activity at 1 µM,[2],85%
same,remaining activity at 1 µM,[3],121%
same,remaining activity at 1 µM,[4],77%
same,remaining activity at 1 µM,[5],100%
same,remaining activity at 1 µM,[6],82%
same,remaining activity at 1 µM,[7],74%
same,remaining activity at 1 µM,[8],84%
same,remaining activity at 1 µM,[9],110%
same,remaining activity at 1 µM,[10],102%
same,remaining activity at 1 µM,[11],96%
same,remaining activity at 1 µM,[12],92%
same,remaining activity at 1 µM,[13],130%
same,remaining activity at 1 µM,[14],18%
same,remaining activity at 1 µM,[15],66%
same,remaining activity at 1 µM,[16],70%
